Patent publication US7252958 (Novartis, dated 2007)

Target: the molecule itself
Experiment: X-ray crystal structure of CD81-LEL

B1: CD81-LEL (large extracellular loop of human CD81, amino acids 113-201) with C-terminal His-tag (receptor)
chain: FVNKDQIAKDVKQFYDQALQQAVVDDDANNAKAVVKTFHETLDCCGSSTLTALTTSVLKNNLCPSGSNIISNLFKEDCHQKIDDLFSGKHHHHHH
notes: Made in E. coli as a fusion with S. aureus Protein A and released by protease (thrombin) cleavage; it forms a homodimer in the crystal, with two chains per asymmetric unit; also called LEL-(His)6; hCD81-LEL
- binding result: binds
